T1: FcγRIIb (human, UniProt P31994 43-217)
T1 construct: extracellular domain; also called 2b; FcgRIIb
T1 sequence (looked up): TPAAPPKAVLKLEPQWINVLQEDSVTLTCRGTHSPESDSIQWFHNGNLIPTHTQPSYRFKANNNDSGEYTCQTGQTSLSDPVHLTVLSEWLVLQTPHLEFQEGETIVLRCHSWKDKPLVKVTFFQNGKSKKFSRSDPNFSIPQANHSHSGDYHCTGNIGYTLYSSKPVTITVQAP


Molecular target: T1, FcγRIIb
Test: SPR (Biacore), binding relative to GpH7-A5/GpH7-B3/GpL16-k0 = 100
Method: Analysis of interaction between objective antibody and the FcγR was carried out using Biacore T100 (GE Healthcare). HBS-EP+ (GE Healthcare) was used as the running buffer, and the measurement temperature was set to 25° C. Chips produced by immobilizing the antigen peptide by the amine coupling method to a Series S Sencor Chip CM5 (GE Healthcare), or alternatively, chips produced by allowing preliminarily biotinylated antigen peptides to interact with and immobilize onto a Series S Sensor Chip SA (certified) (GE Healthcare) were used. Antibodies of interest were captured onto an antigen peptide-immobilized chip, and allowed to interact to each FcγR diluted with running buffer. To regenerate and repeatedly use the chip, the antibodies captured on the chip were washed off by reacting 10 mM glycine-HCl, pH 1.5.
The FcγR-binding activity of each antibody was assessed primarily using as an indicator the FcγR-binding activity and dissociation constant for FcγR.

Row | Binder | He/Con_2b
1 | GpH7-A5/GpH7-B3 variant G237_02A/GpL16-k0 (antibody, human IgG1, kappa, also called He Ab G237_02A) heavy 1: not shown heavy 2: not shown light: DIVMTQSPLSLPVTPGEPASISCQASESLVHSNRNTYLHWYLQKPGQSPQLLIYKVSNRFSGVPDRFSGSGSGTDFTLKISRVEAEDVGVYYCSQNTHVPPTFGQGTKVEIERTVAAPSVFIFPPSDEQLKSGTASVVCLLNNFYPREAKVQWKVDNALQSGNSQESVTEQDSKDSTYSLSSTLTLSKADYEKHKVYACEVTHQGLSSPVTKSFNRGEC | 124 % of control
2 | GpH7-A5/GpH7-B3 variant A327_07I/GpL16-k0 (antibody, human IgG1, kappa, also called He Ab A327_07I) heavy 1: not shown heavy 2: not shown light: DIVMTQSPLSLPVTPGEPASISCQASESLVHSNRNTYLHWYLQKPGQSPQLLIYKVSNRFSGVPDRFSGSGSGTDFTLKISRVEAEDVGVYYCSQNTHVPPTFGQGTKVEIERTVAAPSVFIFPPSDEQLKSGTASVVCLLNNFYPREAKVQWKVDNALQSGNSQESVTEQDSKDSTYSLSSTLTLSKADYEKHKVYACEVTHQGLSSPVTKSFNRGEC | 127 % of control
3 | GpH7-A5/GpH7-B3 variant A327_18N/GpL16-k0 (antibody, human IgG1, kappa, also called He Ab A327_18N) heavy 1: not shown heavy 2: not shown light: DIVMTQSPLSLPVTPGEPASISCQASESLVHSNRNTYLHWYLQKPGQSPQLLIYKVSNRFSGVPDRFSGSGSGTDFTLKISRVEAEDVGVYYCSQNTHVPPTFGQGTKVEIERTVAAPSVFIFPPSDEQLKSGTASVVCLLNNFYPREAKVQWKVDNALQSGNSQESVTEQDSKDSTYSLSSTLTLSKADYEKHKVYACEVTHQGLSSPVTKSFNRGEC | 113 % of control
4 | GpH7-A5/GpH7-B3 variant A330_01G/GpL16-k0 (antibody, human IgG1, kappa, also called He Ab A330_01G) heavy 1: not shown heavy 2: not shown light: DIVMTQSPLSLPVTPGEPASISCQASESLVHSNRNTYLHWYLQKPGQSPQLLIYKVSNRFSGVPDRFSGSGSGTDFTLKISRVEAEDVGVYYCSQNTHVPPTFGQGTKVEIERTVAAPSVFIFPPSDEQLKSGTASVVCLLNNFYPREAKVQWKVDNALQSGNSQESVTEQDSKDSTYSLSSTLTLSKADYEKHKVYACEVTHQGLSSPVTKSFNRGEC | 104 % of control
5 | GpH7-A5/GpH7-B3 variant A330_05P/GpL16-k0 (antibody, human IgG1, kappa, also called He Ab A330_05P) heavy 1: not shown heavy 2: not shown light: DIVMTQSPLSLPVTPGEPASISCQASESLVHSNRNTYLHWYLQKPGQSPQLLIYKVSNRFSGVPDRFSGSGSGTDFTLKISRVEAEDVGVYYCSQNTHVPPTFGQGTKVEIERTVAAPSVFIFPPSDEQLKSGTASVVCLLNNFYPREAKVQWKVDNALQSGNSQESVTEQDSKDSTYSLSSTLTLSKADYEKHKVYACEVTHQGLSSPVTKSFNRGEC | 137 % of control
6 | GpH7-A5/GpH7-B3 variant G237_04F/GpL16-k0 (antibody, human IgG1, kappa, also called He Ab G237_04F) heavy 1: not shown heavy 2: not shown light: DIVMTQSPLSLPVTPGEPASISCQASESLVHSNRNTYLHWYLQKPGQSPQLLIYKVSNRFSGVPDRFSGSGSGTDFTLKISRVEAEDVGVYYCSQNTHVPPTFGQGTKVEIERTVAAPSVFIFPPSDEQLKSGTASVVCLLNNFYPREAKVQWKVDNALQSGNSQESVTEQDSKDSTYSLSSTLTLSKADYEKHKVYACEVTHQGLSSPVTKSFNRGEC | 149 % of control
7 | GpH7-A5/GpH7-B3 variant G237_06M/GpL16-k0 (antibody, human IgG1, kappa, also called He Ab G237_06M) heavy 1: not shown heavy 2: not shown light: DIVMTQSPLSLPVTPGEPASISCQASESLVHSNRNTYLHWYLQKPGQSPQLLIYKVSNRFSGVPDRFSGSGSGTDFTLKISRVEAEDVGVYYCSQNTHVPPTFGQGTKVEIERTVAAPSVFIFPPSDEQLKSGTASVVCLLNNFYPREAKVQWKVDNALQSGNSQESVTEQDSKDSTYSLSSTLTLSKADYEKHKVYACEVTHQGLSSPVTKSFNRGEC | 130 % of control
8 | GpH7-A5/GpH7-B3 variant G237_08L/GpL16-k0 (antibody, human IgG1, kappa, also called He Ab G237_08L) heavy 1: not shown heavy 2: not shown light: DIVMTQSPLSLPVTPGEPASISCQASESLVHSNRNTYLHWYLQKPGQSPQLLIYKVSNRFSGVPDRFSGSGSGTDFTLKISRVEAEDVGVYYCSQNTHVPPTFGQGTKVEIERTVAAPSVFIFPPSDEQLKSGTASVVCLLNNFYPREAKVQWKVDNALQSGNSQESVTEQDSKDSTYSLSSTLTLSKADYEKHKVYACEVTHQGLSSPVTKSFNRGEC | 148 % of control
9 | GpH7-A5/GpH7-B3 variant G237_09D/GpL16-k0 (antibody, human IgG1, kappa, also called He Ab G237_09D) heavy 1: not shown heavy 2: not shown light: DIVMTQSPLSLPVTPGEPASISCQASESLVHSNRNTYLHWYLQKPGQSPQLLIYKVSNRFSGVPDRFSGSGSGTDFTLKISRVEAEDVGVYYCSQNTHVPPTFGQGTKVEIERTVAAPSVFIFPPSDEQLKSGTASVVCLLNNFYPREAKVQWKVDNALQSGNSQESVTEQDSKDSTYSLSSTLTLSKADYEKHKVYACEVTHQGLSSPVTKSFNRGEC | 223 % of control
10 | GpH7-A5/GpH7-B3 variant G237_10E/GpL16-k0 (antibody, human IgG1, kappa, also called He Ab G237_10E) heavy 1: not shown heavy 2: not shown light: DIVMTQSPLSLPVTPGEPASISCQASESLVHSNRNTYLHWYLQKPGQSPQLLIYKVSNRFSGVPDRFSGSGSGTDFTLKISRVEAEDVGVYYCSQNTHVPPTFGQGTKVEIERTVAAPSVFIFPPSDEQLKSGTASVVCLLNNFYPREAKVQWKVDNALQSGNSQESVTEQDSKDSTYSLSSTLTLSKADYEKHKVYACEVTHQGLSSPVTKSFNRGEC | 114 % of control
11 | GpH7-A5/GpH7-B3 variant G237_13S/GpL16-k0 (antibody, human IgG1, kappa, also called He Ab G237_13S) heavy 1: not shown heavy 2: not shown light: DIVMTQSPLSLPVTPGEPASISCQASESLVHSNRNTYLHWYLQKPGQSPQLLIYKVSNRFSGVPDRFSGSGSGTDFTLKISRVEAEDVGVYYCSQNTHVPPTFGQGTKVEIERTVAAPSVFIFPPSDEQLKSGTASVVCLLNNFYPREAKVQWKVDNALQSGNSQESVTEQDSKDSTYSLSSTLTLSKADYEKHKVYACEVTHQGLSSPVTKSFNRGEC | 111 % of control
12 | GpH7-A5/GpH7-B3 variant G237_15Y/GpL16-k0 (antibody, human IgG1, kappa, also called He Ab G237_15Y) heavy 1: not shown heavy 2: not shown light: DIVMTQSPLSLPVTPGEPASISCQASESLVHSNRNTYLHWYLQKPGQSPQLLIYKVSNRFSGVPDRFSGSGSGTDFTLKISRVEAEDVGVYYCSQNTHVPPTFGQGTKVEIERTVAAPSVFIFPPSDEQLKSGTASVVCLLNNFYPREAKVQWKVDNALQSGNSQESVTEQDSKDSTYSLSSTLTLSKADYEKHKVYACEVTHQGLSSPVTKSFNRGEC | 152 % of control
13 | GpH7-A5/GpH7-B3 variant G237_18N/GpL16-k0 (antibody, human IgG1, kappa, also called He Ab G237_18N) heavy 1: not shown heavy 2: not shown light: DIVMTQSPLSLPVTPGEPASISCQASESLVHSNRNTYLHWYLQKPGQSPQLLIYKVSNRFSGVPDRFSGSGSGTDFTLKISRVEAEDVGVYYCSQNTHVPPTFGQGTKVEIERTVAAPSVFIFPPSDEQLKSGTASVVCLLNNFYPREAKVQWKVDNALQSGNSQESVTEQDSKDSTYSLSSTLTLSKADYEKHKVYACEVTHQGLSSPVTKSFNRGEC | 180 % of control
14 | GpH7-A5/GpH7-B3 variant G237_19Q/GpL16-k0 (antibody, human IgG1, kappa, also called He Ab G237_19Q) heavy 1: not shown heavy 2: not shown light: DIVMTQSPLSLPVTPGEPASISCQASESLVHSNRNTYLHWYLQKPGQSPQLLIYKVSNRFSGVPDRFSGSGSGTDFTLKISRVEAEDVGVYYCSQNTHVPPTFGQGTKVEIERTVAAPSVFIFPPSDEQLKSGTASVVCLLNNFYPREAKVQWKVDNALQSGNSQESVTEQDSKDSTYSLSSTLTLSKADYEKHKVYACEVTHQGLSSPVTKSFNRGEC | 108 % of control
15 | GpH7-A5/GpH7-B3 variant G237_20W/GpL16-k0 (antibody, human IgG1, kappa, also called He Ab G237_20W) heavy 1: not shown heavy 2: not shown light: DIVMTQSPLSLPVTPGEPASISCQASESLVHSNRNTYLHWYLQKPGQSPQLLIYKVSNRFSGVPDRFSGSGSGTDFTLKISRVEAEDVGVYYCSQNTHVPPTFGQGTKVEIERTVAAPSVFIFPPSDEQLKSGTASVVCLLNNFYPREAKVQWKVDNALQSGNSQESVTEQDSKDSTYSLSSTLTLSKADYEKHKVYACEVTHQGLSSPVTKSFNRGEC | 193 % of control
16 | GpH7-A5/GpH7-B3 variant H268_03V/GpL16-k0 (antibody, human IgG1, kappa, also called He Ab H268_03V) heavy 1: not shown heavy 2: not shown light: DIVMTQSPLSLPVTPGEPASISCQASESLVHSNRNTYLHWYLQKPGQSPQLLIYKVSNRFSGVPDRFSGSGSGTDFTLKISRVEAEDVGVYYCSQNTHVPPTFGQGTKVEIERTVAAPSVFIFPPSDEQLKSGTASVVCLLNNFYPREAKVQWKVDNALQSGNSQESVTEQDSKDSTYSLSSTLTLSKADYEKHKVYACEVTHQGLSSPVTKSFNRGEC | 114 % of control
17 | GpH7-A5/GpH7-B3 variant H268_05P/GpL16-k0 (antibody, human IgG1, kappa, also called He Ab H268_05P) heavy 1: not shown heavy 2: not shown light: DIVMTQSPLSLPVTPGEPASISCQASESLVHSNRNTYLHWYLQKPGQSPQLLIYKVSNRFSGVPDRFSGSGSGTDFTLKISRVEAEDVGVYYCSQNTHVPPTFGQGTKVEIERTVAAPSVFIFPPSDEQLKSGTASVVCLLNNFYPREAKVQWKVDNALQSGNSQESVTEQDSKDSTYSLSSTLTLSKADYEKHKVYACEVTHQGLSSPVTKSFNRGEC | 116 % of control
18 | GpH7-A5/GpH7-B3 variant H268_15Y/GpL16-k0 (antibody, human IgG1, kappa, also called He Ab H268_15Y) heavy 1: not shown heavy 2: not shown light: DIVMTQSPLSLPVTPGEPASISCQASESLVHSNRNTYLHWYLQKPGQSPQLLIYKVSNRFSGVPDRFSGSGSGTDFTLKISRVEAEDVGVYYCSQNTHVPPTFGQGTKVEIERTVAAPSVFIFPPSDEQLKSGTASVVCLLNNFYPREAKVQWKVDNALQSGNSQESVTEQDSKDSTYSLSSTLTLSKADYEKHKVYACEVTHQGLSSPVTKSFNRGEC | 106 % of control
19 | GpH7-A5/GpH7-B3 variant I332_02A/GpL16-k0 (antibody, human IgG1, kappa, also called He Ab I332_02A) heavy 1: not shown heavy 2: not shown light: DIVMTQSPLSLPVTPGEPASISCQASESLVHSNRNTYLHWYLQKPGQSPQLLIYKVSNRFSGVPDRFSGSGSGTDFTLKISRVEAEDVGVYYCSQNTHVPPTFGQGTKVEIERTVAAPSVFIFPPSDEQLKSGTASVVCLLNNFYPREAKVQWKVDNALQSGNSQESVTEQDSKDSTYSLSSTLTLSKADYEKHKVYACEVTHQGLSSPVTKSFNRGEC | 103 % of control
20 | GpH7-A5/GpH7-B3 variant I332_14T/GpL16-k0 (antibody, human IgG1, kappa, also called He Ab I332_14T) heavy 1: not shown heavy 2: not shown light: DIVMTQSPLSLPVTPGEPASISCQASESLVHSNRNTYLHWYLQKPGQSPQLLIYKVSNRFSGVPDRFSGSGSGTDFTLKISRVEAEDVGVYYCSQNTHVPPTFGQGTKVEIERTVAAPSVFIFPPSDEQLKSGTASVVCLLNNFYPREAKVQWKVDNALQSGNSQESVTEQDSKDSTYSLSSTLTLSKADYEKHKVYACEVTHQGLSSPVTKSFNRGEC | 106 % of control
21 | GpH7-A5/GpH7-B3 variant I336_06M/GpL16-k0 (antibody, human IgG1, kappa, also called He Ab I336_06M) heavy 1: not shown heavy 2: not shown light: DIVMTQSPLSLPVTPGEPASISCQASESLVHSNRNTYLHWYLQKPGQSPQLLIYKVSNRFSGVPDRFSGSGSGTDFTLKISRVEAEDVGVYYCSQNTHVPPTFGQGTKVEIERTVAAPSVFIFPPSDEQLKSGTASVVCLLNNFYPREAKVQWKVDNALQSGNSQESVTEQDSKDSTYSLSSTLTLSKADYEKHKVYACEVTHQGLSSPVTKSFNRGEC | 101 % of control

Source: patent US20180155451A1 (published 2018)
